These results are taken from a protein production outcome set (Wang et al. 2014).

The nature of the data set: label from the status in PepcDB records.
As for “MRLEGEGRSARAGQNLSRAGSARRGAPRDLSMNNLTELQPGLFHHLRFLEELRLSGNHLSHIPGQAFSGLYSLKILMLQNNQLGGIPAEALWELPSLQSLDLNYNKLQEFPVAIRTLGRLQELGFHNNNIKAIPEKAFMGNPLLQTIHFYDNPIQFVGRSAFQYLPKLHTLSLNGAMDIQEFPDLKGTTSLEILTLTRAGIRLLPSGMCQQLPRLRVLELSHNQIEELPSLHRCQKLEEIGLQHNRIWEIGADTFSQLSSLQALDLSWNAIRSIHPEAFSTLHSLVKLDLTDNQLTTLPLAGLGGLMHLKLKGNLALSQAFSKDSFPKLRILEVPYAYQCCPYGMCASFFKASGQWEAEDLHLDDEESSKRPLGLLARQAENHYDQDLDELQLEMEDSKPHPSVQCSPTPGPFKPCEYLFESWGIRLAVWAIVLLSVLCNGLVLLTVFAGGPVPLPPVKFVVGAIAGANTLTGISCGLLASVDALTFGQFSEYGARWETGLGCRATGFLAVLGSEASVLLLTLAAVQCSVSVSCVRAYGKSPSLGSVRAGVLGCLALAGLAAALPLASVGEYGASPLCLPYAPPEGQPAALGFTVALVMMNSFCFLVVAGAYIKLYCDLPRGDFEAVWDCAMVRHVAWLIFADGLLYCPVAFLSFASMLGLFPVTPEAVKSVLLVVLPLPACLNPLLYLLFNPHFRDDLRRLRPRAGDSGPLAYAAAGELEKSSCDSTQALVAFSDVDLILEASEAGRPPGLETYGFPSVTLISCQQPGAPRLEGSHCVEPEGNHFGNPQPSMDGELLLRAEGSTPAGGGLSGGGGFQPSGLAFASHV”, the protein production result is on record as “failed”.
As for “MLVCAAFSGGAGASDAGALLEAARRGDTAQVASLLERKVEVDAPSADGSTPLLLATANDHLAVARQLIEAGADVNRQNSRLDSPYLLAGAEGRLEILRLTLLHGADLKSTNRYGGTALIPACERGHVEVVKTLLQAGVDPNHVNKLGWTGLLEAILLSDGGPRHQEIVRLLIDAGADVNLADADGVSPLAHARQRGQGGIERLLLAAGAQ”, the entry is “failed”; as for “LKYILETKLEEERNHLEELLEKVEEDYEGINYDEVLEALKLFKDNYELPKSKIKRKIRIFLIKENILFLNPQKGTLKPQSYLVWNAIKRML”, “not failed”.
As for “MSASGLLVEKSGPLSLIQDFGRFGLAHIGITQGGPVDDYAYSWANHLLGNRVNCSAIEITLGNACFIALQDCHLAICGGDLNASVDGHPIANWSDFSIKKGQKLQFGMAKNGLRAYLAVKGGFNVPEHLGSSSTVLREALGGLEANGNALKAGDVLPFDAHSLPNHKPRIMTFRFKPDYNLPITLRVIEGYQCDDFSVEAKEKFYSGSFAISPDSNRMGYRLEGNTVKPPYDGILSEGIALGAIQIPHDGNPIVLLNDHQTIGGYPKLGCVARIDLPRLAQAKPGQKVRFVKGDRQGLQDVWCQWAQFFGY”, the entry is “failed”; as for “MLELRPARAADVPAIAAMHAASWRASYRGILPDDYLDRYAADERLSLWRRRFETASPPWVRLACWDGEPVGFVCLLPEEAPELGVYLDNLHVLPGQQGRGIGRALMAAAAAEAERIAPGRPLYLWVYERNADACAAYDKMGGVVMARREVDTAAGTRAIALRYSWP”, “failed”; as for “MFGGIENVKAAEPKVYQFDFGSGSMEPGYIGVRASDRYDRSKGYGFQTPENMRDVAASGAGVKSDAVEFLAYGTKSNNTFNVDLPNGLYEVKVTLGNTARASVAAEGVFQVINMTGDGAEDTFQIPVTDGQLNLLVTEGKAGTAFTLSALKIKKLSDQPVTNRTIYVGGDSTVCNYYPLNSSKQAGWGQMLPHYIDKHTFQVRNMASGGQIARGFRNDGQLEAILKYIKPGDYFMLQLGINDTNPKHKESEAEFKEVMRDMIRQVKAKGADVILSTPQGRATDFTSEGIHSSVNRWYRASILALAEEEKTYLIDLNVLSSAYFTSIGPERTLGLYMDGDTLHPNRAGADALARLAVQELKRQGIAGFLEHHHHHH”, “not failed”.
With “MTPDDQLSAFLGEQPATSRADLFTAVVMQKIERRAFLRDVAAAGGWAAVVGLVAWACAPVLNVLIGALAPGLAPAAAALALVAATLLVSSPSVRRRLGLAAV” the entry was “failed”; with “MRAHTLSRQLREGNLFAEQCPSREVLKHVTSRWGVLILVALRDGTHRFSDLRRKMGGVSEKMLAQSLQALEQDGFLNRVSYPVVPPHVEYSLTPLGEQVSDKVAALADWIELNLPQVLAQRERLSDGG”, “not failed”.
Consider “MKFYIIRHAKVNMRWPKKCTSDEFNQACKKYDGADIVAFQGSLELPVSNIYTSELIRTKQTAQQLFPLQSYQIDKRLNEVPLKAAFSSKIKLPLIFWNILGRLQWLFNSSKQEGIKASKERAEKFCDDLIYKGEDAILITHGFFMITLLKELKKRGFIEKDNGFNFDNLQVIEVKKRLLVY”, for which the protein production result is given as “failed”.
With “MFEGQPKGLYALALANTGERFGYYTMLAIFTLFLQAKFGYTAAETSTIFGCFLAAVYFIPFFGGILADKFGYGKMVTMGIVVMFIGYALLAIPTSDNSGKIMMFGALALIACGTGLFKGNLQVMVGNLYDAPEYSSKRDTAFSIFYMAINIGAMYAPTAATKVTNYMLGKAGLSYVPQIPSLAHQYLDGTITPANQATLESLQAAQNFTGDIATFCTTYIDKLSEAYNYGFGVACVSLIISMLIYVAFRSTFKHADYNSKQAKPANVVEEKLTPEQTKQRIVALLLVFAVVIFFWMAFHQNGLTLTFFARDYTAQEVTGLDRLGFNIVNLTFLLIVIYGLFSLFQGKTGKSKTIAGVVVMVALLCLGWSYTSMDPTINILPQIFQQFNPFFVIALTPVSLAVFGYLARKGKEPSAPRKIGIGMMIAVCGFLIMAIGSIGLPTPDALAASGIEKDALVSPNWLISTYLVLTFAELFLSPMGISFVSKVAPPKYKGMMMGGWFAATAIGNYLVAIIGYLWGGMQLWMVWSVLIVCCLLAALFIFSIMKKLEKVA” the entry was “failed”; with “MCAADHSREQVMRIGEVASRAGVSVRSVRYYEDQGLLASTRSAGGQRQYTEHEVERVQFLQRLYAAGLSSRTIAELLPCVDAPSEVHSDAALERMAQERDRLTEHIADLVRTRDALNALMTAAREYRDAQFA”, “failed”; with “MSLIYTITLNPAIDRLLFIRGELEKRKTNRVIKTEFDCGGKGLHVSGVLSKFGIKNEALGIAGSDNLDKLYAILKEKHINHDFLVEAGTSTRECFVVLSDDTNGSTMIPEAGFTVSQTNKDNLLKQIAKKVKKEDMVVIAGSPPPHYTLSDFKELLRTVKATGAFLGCDNSGEYLNLAVEMGVDFIKPNEDEVIAILDEKTNSLEENIRTLAEKIPYLVVSLGAKGSICAHNGKLYQVIPPKVQERNDTGAGDVFVGAFIAGLAMNMPITETLKVATGCSASKVMQQDSSSFDLEAAGKLKNQVSIIQLEEREGHHHHHH”, “not failed”.
With “EDVEFVRLNVSDLLTDPELAQSIFSLLVSAHYQTSPNDWLALLSDPSLFCWAGIDKSSRNVLTCALVSLEGQLDNELIADIQVGKRRPRGHLVPVSLTQTLCINEPAQQSCIRIMRIAVEQHYQRMHLGSKFIEYIKAFYCDLGIDYLSTSFGSTPGLNEFWLSLDF” the entry was “failed”; with “MMSTTLNTRQATTADIPFLARIEYEASLPPLNHCFWDDLLDGTGTTALQFIEAELKADACNWGNVPDFLILEAGGQPVAAAAGYVPGTDDYCPLCLSQLGAIAKELNWGEETLEGFREHYVGLWGGNLRPLFLTPQATWIIENVAVLPEARGQGFGKALLRALLAKGRSQGHEFAGIMVINGNDRARHTYESVGFKPYQTFYKDYFWEQFKIDFPGVTKFGMRLN”, “failed”.
As for “TTAKPQQIQALMDEVTKQGNIVRELKAQKADKNEVAAEVAKLLDLKKQLAVAEGKPPEAPKGKKKK”, the entry is “not failed”; as for “MRKLFIPLLLFSALEANEKNGFFIEAGFETGLLEGTQTQEKRHTTTKNTYATYNYLPTDTILKRAANLFTNAEAISKLKFSSLSPVRVLYMYNGQLTIENFLPYNLSNVKLSFTDAQGNVIDLGVIETIPKHSKIVLPGEAFDSLKIDPYTLFLPKIEATSTSVSDANTQRVFETLNKIKTDLVVNYRNENKFKDHENHWEAFTPQTAEEFTNLMLNMIAVLDSQSWGDAILNAPFEFTNKDGGEECDTSKENECVNPGTNGRVNSKVDQQYVLNKQDIVNKFRNKADLDVVILKDSGVVGLGSDITPSNNDDGKHYGQLGVVASALDPKKLFGDNLKTINLEDLRTILHEFSHTKGYTHNGNMTYQRVPVMKDGQVEKDSNGKPKDSDGLPYNVCSLYGGQGQSAFPSNYPNSIYHNCADVPAGFLGVTAAVWQQLINQNALPINYANLSTQTNYNLNASLNTQDLANSMLSTIQKTFVTSSVTNHYSSSASQSFRSPILGVNAKIGYQNYFNDFIGLAYYGIIKYNYAKAINQKVQQLSYGGGIDLLLDFITTYSNKNSPTGIQTKRNFSSSFGIFGGLRGLYNSYYVLNKVKGSGNLDVATGLNYRYKHSKYSVGISIPLIQRKASVVSNGGDYTNSFVFNEGASHFKVFFNYGWVF”, “failed”.
“MANTATDQRADTLMLVHVPADRKKTYAISLMRDLWIDIPGVGESKINAALAYGGVPLMVQTVESLLQQRIDHVAMIDFQGFKGLTDALGGVEVDVRIPFAPSSGPKAGQVYDAGKQTLNGDEALAFVRERKAFSDGDYQRVRNQQAYLKAIIGKVIARETLTNPVTISNMVSAVSPFVSVDKDFDAAAIGSLALSMKDVRAQDTVMFTLPTLGTGTSPDGQSIVLADTTAIADVTAALAKDQVDAYITAHALDKGFLEHHHHHH”: the protein production result is “not failed”.
With “MKQIVAGIVAHVDAGKTTLSEALLYRTGEIRKLGRVDHGDAFLDTNSLEKARGITIFAHQALVEHGDLRLTLLDTPGHVDFAAETERVLRVLDYAILVVSGTDGVQGHTETLWRLLARYGVPTFIFVNKCDAAGFAREAILAQLRKRLSDAIYPLPAMEQFTEGSAVPLDAFAEDIATLDEEAMNDYLEHGVLSVGRLRSMIAVRELFPVYFGSALKLEGVEEFLDGLETFTREREWPAAFAARVFKIAHDGQHNRMTWLRVTGGALKAKEIVSSSSCAAASTPSPAQEDDGMAWSEKVDQVRIYNGAKFETVTEVPAGSVCAVTGLTRTFPGEGLGAEPDAESPSLQPVLTYTVLPAGAESDTAGTSGAAKRGGTGHDSVNRDDAEHDAAKSETGRNEENDTAGQDAETDNSSPALPQFDDLTLHKVITALRELEDEDPLLHVVWVERLAEIHVQLMGTVQLEIIQQTLHDRFGLDVSFGPGSILYRETITAPVEGAGHFEPLRHYAEAHILLEPGEPGSGVTVGSALSENDLDRNWQRLILTHLTEREHLGVLVGAPLTDIKMTLVAGRAHLKHTEGGDFRQATYRAIRQGLMEARAGVSGRPETPVESRPDTTGEGNCRLLEPWYRFRLEVPADMIGRAMSDIQRMAGTFESPVTDGEYAVIEGEAPVSEMRDYAMDVNQYTHGHGHFSATFGGYKPCHDAKQVIAAAAYDPEADLDNTPDSVFCAHGAGYPVKWYKVPEFAHVDYVM”, the protein production entry is on record as “failed”.
As for “MPDTPLLASSQPAAGRRALGLSARLAFAALAGGGGLAWIDRGDTALWLIAPALLWLQVLLTLAGVLALAGGSRLPGALIVALSAGLLVPPLTVEMRLLGFFLAAPPPDQSILTTAQYTLAGALAAGALAWILARRRFGRPPCSWTMLDCGGPGAEIDMDAALASLSAETLRRRDRAYIDAPPPLPFAPRGPPRPPPPTLGGPRLKRMPAGLGGAILCLESDDHTLRVHTTQGSGTLAGRLGDAALDLGESAGLRVHRSWWVAREAVSAIERDGRRMRLILLNGMDVPVSRAHQPKVLAGPWPNLRVS”, the entry is “failed”.
In the case of “TSSISPAKMANGTAGTKVALRKTKQAAEKISADKISKEALLECADLLSSALTEPVPNSQLVDTGHQLLDYCSGYVDCIPQTRNKFAFREA”, the protein production result is listed as “failed”.
For the sequence “ESLKAGSSWQCDTCLLQNKVTDNKCIACQAAKLSPRDTAKQTGIETPNKSGKTTLSASGTGFGDKFKPVIGTWDCDTCLVQNKPEAIKCVACETPKPGTCVKRALTLTVV”, the protein production result is recorded as “failed”.
